This note sets out measurements from article PMC7225089, “A long lost key opens an ancient lock: Drosophila Myb causes a synthetic multivulval phenotype in nematodes” (Biology Open, 2020).

Experiment [1] concerns the target Drosophila LIN9-LIN52 heterodimeric Myb-binding domain complex (D. melanogaster). As to the kind of experiment: ITC; Myb fragment (~500 μM) in the syringe injected into LIN9-LIN52 heterodimer (~25–50 μM) at 25°C; 20 mM Tris, 150 mM NaCl, 1 mM beta mercaptoethanol, pH 8.0; MicroCal VP-ITC; triplicate.
Experiment [2] deals with T1, C. elegans LIN9-LIN52 heterodimeric Myb-binding domain complex (C. elegans, UniProt P30630 442-559; Q10120 75-139).
T1 construct: also called nematode LIN9-LIN52; ceLIN9; source: E. coli, co-expressed, purified (glutathione-sepharose, anion exchange, TEV cleavage, Superdex 200); not shown: GST, N-terminal, cleaved
T1 sequence (looked up) 1: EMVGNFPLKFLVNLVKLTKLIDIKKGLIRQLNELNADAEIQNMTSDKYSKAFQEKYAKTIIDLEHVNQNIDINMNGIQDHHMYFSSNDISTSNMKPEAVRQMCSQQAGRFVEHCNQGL
T1 sequence (looked up) 2: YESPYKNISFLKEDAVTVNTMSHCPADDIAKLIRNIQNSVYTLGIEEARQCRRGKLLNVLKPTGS
The experiment is described as above. Conditions: both partners purified.

Numbering of substitutions follows the chain as printed. In names and notes the source's numbering stands.

B1: Drosophila melanogaster Myb MuvB-binding domain (residues 602-632), wild type (domain or fragment, D. melanogaster, UniProt P04197 602-632, looked up)
chain: VIDPKWARVACGKSRDQMFMEEQAYACLKNL
notes: Expressed from the pGEX vector and 'purified as described for the LIN9-LIN52 complex'; also called Drosophila Myb; dmMyb; source: E. coli, purified (glutathione-sepharose, anion exchange, TEV cleavage, Superdex 200); not shown: GST, N-terminal, cleaved
On to B1, for which the Kd in experiment [1] is 3 µM; in experiment [2], 7 µM.

B2: Drosophila melanogaster Myb MuvB-binding domain (residues 602-632), K606A/W607A double-substitution mutant (domain or fragment, D. melanogaster, UniProt P04197 602-632, looked up)
chain: B1 chain with K5A, W6A
notes: Expressed from the pGEX vector and 'purified as described for the LIN9-LIN52 complex'; also called KW; source: E. coli, purified (glutathione-sepharose, anion exchange, TEV cleavage, Superdex 200); not shown: GST, N-terminal, cleaved
B2: the Kd in experiment [1] stood at 41 µM; in experiment [2], 70 µM.
